Experimental data published in the supplement of paper PMC10724198.
± gives the standard deviation of the averaged measurements.

Each sequence was assayed on Saccharomyces cerevisiae (assay: protein stability index of tFT-peptide fusion (C-terminal peptide) (PSI (0-1 scale)); higher = more stable (slower turnover)). Settings: genetic background: wild type; temperature: 30 C.
Experimental: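 Multiplexed protein stability (MPS) profiling in S. cerevisiae. Random 12-aa peptides (tFT-X12 library) are fused to the C-terminus of a sfGFP-mCherry tandem fluorescent timer, after mCherry and a GGGS linker. Cells are FACS-sorted into 8 mCherry/sfGFP bins and deep-sequenced. The protein stability index (PSI) is the read-weighted bin average, scaled from 0 (unstable) to 1 (stable). Only peptides with >10 reads are reported; cells were grown at 30 °C in SC-His with glucose.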
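Also: PSI is a weighted mean of sequencing reads over stability bins, variants kept only with over 10 reads, mCherry proximal and sfGFP distal, peptide attached via GGGS linker.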

| Sequence | protein stability index |
| --- | --- |
| AAAPWSVSGCPG | 0.6611 ± 0.0049 |
| AACLCATYPVGT | 0.752 ± 0.07 |
| AAGTVFCRITWD | 0.678 ± 0.022 |
| AAIFDSIRKDLR | 0.69 ± 0.039 |
| AAISGELRVWVL | 0.642 ± 0.0081 |
| AAKQIPRYRTTG | 0.716 ± 0.078 |
| AALRLVEDKSTW | 0.71 ± 0.059 |
| AAPAGAAKRWGT | 0.641 ± 0.035 |
| AAPRGRGRFAAA | 0.699 ± 0.024 |
| AARFRAVPVFGN | 0.661 ± 0.037 |
| AARPLGLPSASG | 0.7113 ± 0.0062 |
| AARQRWSLEFLD | 0.65 ± 0.1 |
| AASPPPRISAWL | 0.746 ± 0.02 |
| AATDWFHLPFPP | 0.682 ± 0.15 |
| ACLCLPGVRVGG | 0.625 ± 0.038 |
| ACPDARNAGTQR | 0.708 ± 0.022 |
| ACSPPPLLPPPL | 0.737 ± 0.016 |
| ACSSSLPPSSPP | 0.671 ± 0.0078 |
| ACVPGGFVWGGV | 0.754 ± 0.065 |
| ACYEYRPSPASC | 0.728 ± 0.053 |
| ADENFKVRKRRS | 0.703 ± 0.057 |
| ADQVGRAVIIAS | 0.644 ± 0.0074 |
| ADRVHLNGLEML | 0.747 ± 0.0093 |
| AEEWPVRAGGRG | 0.609 ± 0.056 |
| AEGCHIRVHWGV | 0.7265 ± 0.0066 |
| AEGYRGECSGCM | 0.622 ± 0.052 |

| Sequence | protein stability index |
| --- | --- |
| AEVRGTVGRLVG | 0.632 ± 0.011 |
| AFAFSVLTGWGV | 0.638 ± 0.072 |
| AFGAPVVRHATF | 0.723 ± 0.02 |
| AFGFCKVLSSGC | 0.68 ± 0.013 |
| AFLVGYSGVGYV | 0.687 ± 0.032 |
| AFPLPPPPPPKP | 0.708 ± 0.012 |
| AFPPDVPPLTPL | 0.72 ± 0.1 |
| AFRGFLSVNFNL | 0.7338 ± 0.005 |
| AFSYRAVIALLP | 0.683 ± 0.018 |
| AFVLGSWSWWRA | 0.715 ± 0.015 |
| AGAGEHCDGVVG | 0.641 ± 0.0096 |
| AGAGGGGWWGGV | 0.76 ± 0.054 |
| AGAGGGQGKGRE | 0.639 ± 0.019 |
| AGALYGNPCPPL | 0.657 ± 0.019 |
| AGARLEWVVAGR | 0.7539 ± 0.0045 |
| AGCRFRWHTVDC | 0.648 ± 0.073 |
| AGGAGWGLVLGC | 0.647 ± 0.082 |
| AGGGGGDAGRGV | 0.744 ± 0.078 |
| AGGGRRRLDGGR | 0.703 ± 0.0086 |
| AGGRGGGLGLWC | 0.724 ± 0.1 |
| AGIDYLSVGGSL | 0.728 ± 0.074 |
| AGLDRFLVIWGI | 0.6106 ± 0.0061 |
| AGLLGVVGGRFG | 0.6993 ± 0.00076 |
| AGLRMALGVGIP | 0.6975 ± 0.0065 |
| AGRGGTGIGERV | 0.63 ± 0.072 |
| AGRTGVLGGHVP | 0.691 ± 0.0095 |

| Sequence | protein stability index |
| --- | --- |
| AGRVGRRGPPNR | 0.629 ± 0.038 |
| AGSLPLLYPSLR | 0.745 ± 0.015 |
| AGSSGGGAWWGE | 0.681 ± 0.12 |
| AGSSLVVAWHGV | 0.673 ± 0.028 |
| AGTALVFNGSKA | 0.7209 ± 0.0045 |
| AGVVARTRRDGG | 0.708 ± 0.035 |
| AGVVGRMGWGAT | 0.707 ± 0.041 |
| AHEAHPITPRGP | 0.695 ± 0.042 |
| AHFQDSTSPATI | 0.722 ± 0.017 |
| AHGASGNRSHNQ | 0.644 ± 0.037 |
| AHPPPPPPPPAP | 0.677 ± 0.14 |
| AHPPPSPPFPRH | 0.658 ± 0.015 |
| AHQEAIIPTIGK | 0.694 ± 0.087 |
| AHVYGCGGGGMT | 0.734 ± 0.055 |
| AHWYPAGQCSRL | 0.804 ± 0.13 |
| AICSVRSGITLS | 0.6529 ± 0.0019 |
| AIGPLTCFFAFL | 0.695 ± 0.079 |
| AIILGPPIGWTK | 0.757 ± 0.026 |
| AILGYFSLVEPP | 0.542 ± 0.013 |
| AIPRPPRVWGHL | 0.727 ± 0.016 |
| AISVISNLTKLE | 0.617 ± 0.034 |
| AIVASAPSLGRS | 0.658 ± 0.038 |
| AKDSSPTFTSPH | 0.673 ± 0.032 |
| AKDSTAVVRLGT | 0.703 ± 0.029 |
| AKKTKSRANSDL | 0.701 ± 0.085 |
| AKRKEAGKPHAN | 0.695 ± 0.085 |

| Sequence | protein stability index |
| --- | --- |
| AKRQRQQKKDKG | 0.626 ± 0.014 |
| AKSSLGSSYKTL | 0.761 ± 0.064 |
| AKYPLTRCLFGS | 0.705 ± 0.033 |
| ALASPPPTPSLV | 0.638 ± 0.0068 |
| ALEFRDASLPVQ | 0.682 ± 0.068 |
| ALFVVLSGLSLR | 0.616 ± 0.017 |
| ALGGKDQSRSSS | 0.699 ± 0.019 |
| ALLGGQLVWNSK | 0.667 ± 0.14 |
| ALLLPFPPPPPP | 0.559 ± 0.03 |
| ALLLSHFLFFYA | 0.524 ± 0.028 |
| ALLSRFFPAFFF | 0.604 ± 0.021 |
| ALPLPAPSSIPS | 0.712 ± 0.029 |
| ALPNPLLPPAPP | 0.612 ± 0.026 |
| ALPPGSRPLIPS | 0.628 ± 0.024 |
| ALPRFPATSFPT | 0.695 ± 0.04 |
| ALPRPPSPFSPL | 0.666 ± 0.078 |
| ALRGRTTPPSHT | 0.726 ± 0.086 |
| ALSEAITLPVNP | 0.674 ± 0.085 |
| ALVPPDPTPPPP | 0.699 ± 0.047 |
| ALVQAAPPGRTP | 0.6864 ± 0.0049 |
| ALVTLRRVVDLV | 0.601 ± 0.08 |
| AMGILSHLTACW | 0.659 ± 0.048 |
| ANKIRMKYMRTG | 0.6139 ± 0.0027 |
| ANKKKKKIKTKH | 0.757 ± 0.12 |
| ANSRPASSTRLR | 0.857 ± 0.2 |
| APAWSFFGLDKS | 0.702 ± 0.015 |

| Sequence | protein stability index |
| --- | --- |
| APEGGEAQVLPA | 0.6842 ± 0.0022 |
| APFAPRRPLPPP | 0.612 ± 0.094 |
| APFRHKANEPGE | 0.706 ± 0.037 |
| APIQPGEDKLKR | 0.64 ± 0.0099 |
| APIQPRAPPRAP | 0.669 ± 0.017 |
| APIRRPTCLSEV | 0.708 ± 0.043 |
| APIWRSLRGLAI | 0.555 ± 0.18 |
| APLTVLTARSLF | 0.763 ± 0.055 |
| APNPPPPPPPLP | 0.729 ± 0.03 |
| APPFNPSRLSRP | 0.725 ± 0.066 |
| APPPLPPPTLPT | 0.757 ± 0.041 |
| APPPNPPRPSSR | 0.754 ± 0.032 |
| APPPPAVPHYRP | 0.667 ± 0.012 |
| APPPPHPRTPKP | 0.693 ± 0.069 |
| APPPPPFPPPCA | 0.694 ± 0.049 |
| APPPPPPAPPLP | 0.591 ± 0.028 |
| APPPPPPFPPLP | 0.684 ± 0.093 |
| APPPPPRISAWL | 0.745 ± 0.012 |
| APPPPPVHPSSP | 0.734 ± 0.011 |
| APPPPTPPPPPA | 0.7 ± 0.019 |
| APPSPTSPPTPP | 0.642 ± 0.1 |
| APRKTPPHPPPS | 0.689 ± 0.06 |
| APRPSNRRPRPR | 0.629 ± 0.025 |
| APRRSPGWGPEG | 0.731 ± 0.083 |
| APSEPVIYLPRV | 0.746 ± 0.14 |
| APSINVQVYWSG | 0.649 ± 0.041 |

| Sequence | protein stability index |
| --- | --- |
| APSPPFLPLTLT | 0.656 ± 0.035 |
| APSPPTRYLPLF | 0.684 ± 0.019 |
| APSSPPPPTLPP | 0.716 ± 0.17 |
| APVGYNTVASAC | 0.685 ± 0.042 |
| APVVSFTAPLAF | 0.619 ± 0.1 |
| AQERDGAIKKTH | 0.7 ± 0.033 |
| AQLPRSFAPPLR | 0.868 ± 0.19 |
| AQRRHGRSIRRD | 0.787 ± 0.019 |
| AQSYPHPPPPPP | 0.644 ± 0.041 |
| ARACPLCFVMMF | 0.559 ± 0.013 |
| ARCGNSAPWHVG | 0.693 ± 0.019 |
| ARFYPPLPTDSL | 0.708 ± 0.056 |
| ARGAPVSGRAGG | 0.6574 ± 0.005 |
| ARGDDGSTCSRG | 0.697 ± 0.059 |
| ARGGGPERIHPE | 0.66362 ± 0.00048 |
| ARGIVAHKVTQP | 0.65 ± 0.11 |
| ARHESRPTHSAQ | 0.6924 ± 0.0046 |
| ARNMGLFVFNLR | 0.6783 ± 0.0043 |
| ARPAPHRSRRPS | 0.68 ± 0.013 |
| ARPAPPLPAIPL | 0.663 ± 0.043 |
| ARPPRASRISSL | 0.81 ± 0.044 |
| ARRGATRGHAHV | 0.684 ± 0.046 |
| ARSAGITSPSKD | 0.788 ± 0.12 |
| ARSPLTIGLYPF | 0.6915 ± 0.0016 |
| ARSSHVLQRSKV | 0.634 ± 0.018 |
